Data as given in the supplement of paper PMC12636428.

test system: Saccharomyces cerevisiae; assay: transcriptional activation domain activity (GFP:mCherry ratio, weighted mean of sorted bins, harmonized to initial dataset scale) (arbitrary fluorescence ratio units); higher = stronger transcriptional activation; details: beta-estradiol 1 µM; induction time 4 h
Method in brief: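 Activation activity, the read-weighted mean of bin median fluorescence averaged across barcodes, was linearly mapped onto the scale of the initial dataset. It was measured for barcoded protein tiles fused to an estradiol-inducible synthetic transcription factor at URA3 in GFP-reporter yeast diploids. Cultures diluted 1:5 into SC with 1 uM beta-estradiol were held 4 hours at 30 °C, sorted into 8 bins by GFP:mCherry ratio, and barcode-sequenced, and tiles under 50 reads were discarded.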

| Sequence | transcriptional activation domain activity |
| --- | --- |
| ARYVVQYKNSLIGKHFKMLQQLGIFHLHDLCSPLLFDLWKATGELGALLWFPE | 66700 |
| SESDTDSEEEEIEEDEGAAETRPGIRLQREEKAVETGEITNRLAIVNIDWDHL | 32000 |
| MREAERAREEQEQERRRVEKVREREREREQERLERERLKAERERAAAAAVVAA | 40100 |
| GFVLPLFFNSLCPMIPIGFSFVFHFFSHFSFLPIVCFPFPFHLFDTLGSFFFR | 33100 |
| MFDYLVFTLCPCIFFILFLLILLVLLHKALVVFFFYHYSILVLVVPYYCLFVF | 86400 |
| MSFKKDEETGVSSFYQDKTSVIQEARVFNETPISPRKCRILLTKVIYLLYSGE | 44100 |
| SLHKIHLVYRDVLRDKLRASVGCSRIRKILRSPPLYPTWMRCLFAFICASIIC | 57600 |
| LPRFFFLSFYTFLLIFPLLHLFHHLSLLFSPPILLYSSLILFFSHFLPLLLFL | 38900 |
| KPHHKWIVPTPFASHAFHPVDGYFQSLPYHIFIFVFPMQRHLYLALFVAVNCW | 41800 |
| PVKETETAAVPEVTAEPEAEAAKPAEAPKEEKKEEKKEAKSPKVSRRLSQRVE | 58300 |
| NFMNNEITASKIDDGNNSKPLSPGWTDQTAYNAFGITTGMFNTTTMDDVYNYL | 120000 |
| AKGAKKAKGAKKAKGAKKAAAGGAAAKAGAAAKAAKKAAKAKAAAAGGAAAAA | 26000 |
| TGAGTGAFGSTNNTTSNGGIFGSQPPATGNAFGGGGAFGQNKPATGFGAAPST | 40200 |
| MLIQSQPQPPPTKHTPLYFIPHFILLLLLALSPSLTLLTLSFFYLFLFCYLLV | 20900 |
| SYYNLLCFSLCVRVCVCFVLLIILSFVSLLCFSFLLCFHCVLPFFFFFVFFFF | 49200 |
| PVALLSLCFNLCFQTCMHIVSLDLHYHFPNLSLGRSLNILRAFSFFVMIFFIS | 88100 |
| MIHVPLIIFYIILNLFVAYLCLLIFSYYYRMIAQLLYNQCMIQMQPIIHQIKE | 53500 |
| ENHPPGVAAQILIARISWILWHSVEQIRITVWVVGRKFMMVLLQGTVPRISVR | 71600 |
| IHILASIPSEFWKLLILSFFEKFRSNIYHTLFYRFIYLNRGFILLLLNQLRLI | 48100 |
| GIFCSPFFPFFVPLFCPPFPPPSLFPPLCISLPLSMPNSLLFLFTILYEYAGC | 56200 |
| TSSPSAISSTSVNTLLVAGSEGTDAHVKTVGEQLKTRMGVKGGGKGTRWSGKM | 57300 |

| Sequence | transcriptional activation domain activity |
| --- | --- |
| DKPKTKPAAAKAKPKSATTKAKPASKASAKPSSKAGAKKPASKKATAAAAAKK | 12000 |
| EGGRQRERAGGAGGEDSKGEGRREERREEGKGGKGSAEERESREGSARGGEAG | 10200 |
| GRGRGGRGAGARGRGGTGEEGEGAGGKQERGQGGRGKERGGEGGGERGQGGRG | 28000 |
| HESEESSDKKGKKKAKIEEEKEEEKEAEEEKAEEVEEAEEAEEVGEVGEEAAV | 45400 |
| CIGAMVLIVLWAGGVCILVLVMCIPLEGVWDRRVNAKCIPHMTVMWYFNGVFN | 62900 |
| FAGIYSLVHFRKVWSSDHFILRKFMFMIEDLYQLYNLFFSWVAMGNFYLIFYI | 67800 |
| MIVVVLCLPSALTHLGCLFYHDPSSPFALVTFSVSLIIILPNLGVILFGFFNI | 48600 |
| YTSLIILVTWLSIVFSKFVLHRRTFGLVFVHLHFFFLFALFSFFFSYCVCIRI | 60600 |
| GPWFLGAFIPSIPQYGLFYPYGIYFPDTKEWIPILDTFYIALWEHTFFIFPLL | 51600 |
| KKQEERKEGYRRKVEENKEKREGREKREKDEFWRREGKKRRYQEGDGAGAGAG | 38100 |
| CCLLRTLGRFLLFIIFSPSLSTSSFQTLPLTLPFYLLSIFTKKPLYPIPFLCI | 44800 |
| CLHFQFSLLFLLCLYVCVGWIFYACILSYLPPLLFIVSFVTILQRTAFCFGEE | 45000 |
| PFQFLLLKSLSIQKHSDLIIRGCSHFYVGVLSCILNFFLGSWSAWLKRFWYML | 80300 |
| MFLFVFSLVCIFYYCCYLLLLLLSSWLYSQQFVLFWSLTVHISCCPSFFLNES | 37400 |
| FVVLLYQSIFVLSLWLLPVFFKSHIKSLSYKSQVDTSIHVVSMFQCLLILYLI | 50200 |
| VQFVLDLIVMVGVAGYNTVAQLYFPQLPHHKCSNSAATGSFGLFLICCYLVLF | 53700 |
| KIHLVNLGQISVFFIHRFLFGLIPLFEITTCAFFPLLISLWHIDYLLFYTVMF | 39800 |
| VLSSSLCFPLPPLSPPFLPSLCFPLPPFFPFPPFPLFPPFLPFPLFPLCFPLP | 48300 |
| FHSLLSPFHASFLSLFYPHSLSCFYLFPFLHAFVFLFHFRCGFLGVSCILLSA | 73200 |
| EELWTDVDLYNAQFFFIKLLLHFNDPIYGPNTHELLIVMLGQKGGLYPLWQLL | 59700 |
